Measured values reported in IntAct's records for PubMed 20371349.

B1: Catenin delta-1 (Homo sapiens), O60716-29 (parent)
chain: MIGEEVPSDQYYWAPLAQHERGSLASLDSLRKGGPPPPNWRQPELPEVIAMLGFRLDAVKSNAAAYLQHLCYRNDKVKTDVRKLKGIPVLVGLLDHPKKEVHLGACGALKNISFGRDQDNKIAIKNCDGVPALVRLLRKARDMDLTEVITGTLWNLSSHDSIKMEIVDHALHALTDEVIIPHSGWEREPNEDCKPRHIEWESVLTNTAGCLRNVSSERSEARRKLRECDGLVDALIFIVQAEIGQKDSDSKLVENCVCLLRNLSYQVHREIPQAERYQEAAPNVANNTGPHAASCFGAKKGKGKKPIEDPANDTVDFPKRTSPARGYELLFQPEVVRIYISLLKESKTPAILEASAGAIQNLCAGRWTYGRYIRSALRQEKALSAIADLLTNEHERVVKAASGALRNLAVDARNKELIGKHAIPNLVKNLPGGQQNSSWNFSEDTVISILNTINEVIAENLEAAKKLRETQGIEKLVLINKSGNRSEKEVRAAALVLQTIWGYKELRKPLEKEGWKKSDFQVNLNNASRSQSSHSYDDSTLPLIDRNQKSDKKPDREEIQMSNMGSNTKSLDNNYSTPNERGDHNRTLDRSGDLGDMEPLKGTTPLMQKI
B2: Catenin delta-1 (Homo sapiens), O60716-5 (parent)
chain: MDDSEVESTASILASVKEQEAQFEKLTRALEEERRHVSAQLERVRVSPQDANPLMANGTLTRRHQNGRFVGDADLERQKFSDLKLNGPQDHSHLLYSTIPRMQEPGQIVETYTEEDPEGAMSVVSVETSDDGTTRRTETTVKKVVKTVTTRTVQPVAMGPDGLPVDASSVSNNYIQTLGRDFRKNGNGGPGPYVGQAGTATLPRNFHYPPDGYSRHYEDGYPGGSDNYGSLSRVTRIEERYRPSMEGYRAPSRQDVYGPQPQVRVGGSSVDLHRFHPEPYGLEDDQRSMGYDDLDYGMMSDYGTARRTGTPSDPRRRLRSYEDMIGEEVPSDQYYWAPLAQHERGSLASLDSLRKGGPPPPNWRQPELPEVIAMLGFRLDAVKSNAAAYLQHLCYRNDKVKTDVRKLKGIPVLVGLLDHPKKEVHLGACGALKNISFGRDQDNKIAIKNCDGVPALVRLLRKARDMDLTEVITGTLWNLSSHDSIKMEIVDHALHALTDEVIIPHSGWEREPNEDCKPRHIEWESVLTNTAGCLRNVSSERSEARRKLRECDGLVDALIFIVQAEIGQKDSDSKLVENCVCLLRNLSYQVHREIPQAERYQEAAPNVANNTGPHAASCFGAKKGKGKKPIEDPANDTVDFPKRTSPARGYELLFQPEVVRIYISLLKESKTPAILEASAGAIQNLCAGRWTYGRYIRSALRQEKALSAIADLLTNEHERVVKAASGALRNLAVDARNKELIGKHAIPNLVKNLPGGQQNSSWNFSEDTVISILNTINEVIAENLEAAKKLRETQGIEKLVLINKSGNRSEKEVRAAALVLQTIWGYKELRKPLEKEGWKKSDFQVNLNNASRSQSSHSYDDSTLPLIDRNQKSDKKPDREEIQMSNMGSNTKSLDNNYSTPNERGDHNRTLDRSGDLGDMEPLKGTTPLMQKI

Variants of: B1
Conditions: with cadh1_mouse Cdh1, P09803
cadh1_mouse Cdh1, P09803, sequence (P09803 whole entry): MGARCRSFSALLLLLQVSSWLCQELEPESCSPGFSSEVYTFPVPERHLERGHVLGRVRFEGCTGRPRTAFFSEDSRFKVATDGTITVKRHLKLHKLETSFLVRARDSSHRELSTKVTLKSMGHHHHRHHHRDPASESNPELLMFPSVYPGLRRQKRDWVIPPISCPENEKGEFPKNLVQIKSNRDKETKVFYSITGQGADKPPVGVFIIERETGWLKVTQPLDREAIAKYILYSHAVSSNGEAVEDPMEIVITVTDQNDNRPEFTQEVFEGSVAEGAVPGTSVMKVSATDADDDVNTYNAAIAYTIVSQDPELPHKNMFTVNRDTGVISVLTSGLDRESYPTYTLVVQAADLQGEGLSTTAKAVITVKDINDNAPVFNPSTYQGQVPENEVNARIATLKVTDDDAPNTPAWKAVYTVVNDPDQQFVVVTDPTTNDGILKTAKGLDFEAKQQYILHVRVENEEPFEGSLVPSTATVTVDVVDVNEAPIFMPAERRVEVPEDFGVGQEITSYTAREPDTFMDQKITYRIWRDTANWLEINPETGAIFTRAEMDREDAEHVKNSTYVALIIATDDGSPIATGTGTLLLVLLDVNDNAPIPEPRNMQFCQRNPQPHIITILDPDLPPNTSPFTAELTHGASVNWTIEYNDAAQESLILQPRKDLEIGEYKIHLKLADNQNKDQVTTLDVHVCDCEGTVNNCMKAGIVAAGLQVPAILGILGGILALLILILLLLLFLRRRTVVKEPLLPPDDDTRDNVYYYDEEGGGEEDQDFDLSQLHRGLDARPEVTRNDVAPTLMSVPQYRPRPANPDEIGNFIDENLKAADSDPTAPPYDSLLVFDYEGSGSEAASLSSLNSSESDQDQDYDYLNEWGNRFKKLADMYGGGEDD

| effect of a mutation on the interaction | Variant |
| --- | --- |
| disrupting interaction | N155A |
| disrupting interaction | K78M |
| disrupting interaction | K121M |
| decreasing interaction | W154A |

Variants of: B2
Conditions: with cadh1_human CDH1, P12830
cadh1_human CDH1, P12830, sequence (P12830 whole entry): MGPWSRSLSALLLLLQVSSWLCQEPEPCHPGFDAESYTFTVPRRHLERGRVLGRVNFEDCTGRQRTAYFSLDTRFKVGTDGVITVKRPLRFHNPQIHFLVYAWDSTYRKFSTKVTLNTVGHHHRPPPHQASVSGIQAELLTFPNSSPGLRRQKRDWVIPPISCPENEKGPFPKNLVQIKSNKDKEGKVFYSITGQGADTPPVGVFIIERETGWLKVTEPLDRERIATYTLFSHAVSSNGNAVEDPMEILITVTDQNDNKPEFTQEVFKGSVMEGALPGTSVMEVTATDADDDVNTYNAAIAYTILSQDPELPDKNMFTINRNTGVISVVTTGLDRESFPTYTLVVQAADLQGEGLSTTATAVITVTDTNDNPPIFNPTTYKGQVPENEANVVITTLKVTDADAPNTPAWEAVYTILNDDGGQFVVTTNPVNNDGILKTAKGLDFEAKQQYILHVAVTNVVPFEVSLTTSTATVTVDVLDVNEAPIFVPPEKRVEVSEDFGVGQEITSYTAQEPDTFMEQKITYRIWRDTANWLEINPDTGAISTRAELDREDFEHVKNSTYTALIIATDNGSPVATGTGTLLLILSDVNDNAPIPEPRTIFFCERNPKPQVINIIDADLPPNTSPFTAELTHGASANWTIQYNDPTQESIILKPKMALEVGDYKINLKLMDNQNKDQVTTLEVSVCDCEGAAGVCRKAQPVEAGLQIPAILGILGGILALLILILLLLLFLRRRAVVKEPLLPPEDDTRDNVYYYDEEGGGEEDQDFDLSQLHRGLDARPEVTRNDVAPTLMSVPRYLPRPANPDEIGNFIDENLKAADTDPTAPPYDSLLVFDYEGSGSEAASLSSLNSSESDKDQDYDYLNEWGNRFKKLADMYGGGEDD

| effect of a mutation on the interaction | Variant |
| --- | --- |
| decreasing interaction | N478A |
| decreasing interaction | K401M |
